Molecular target: the molecule itself
Experiment: AUC

B1: Mdv1 CC^231–299 (domain or fragment, yeast)
chain: GPQTLVNSLEFLNIQKNSTLSEIRDIEVEVENLRQKKEKLLGKIANIEQNQLLLEDNLKQIDDRLDFLEEY
- stoichiometry N: 1.95

Reference: PMC3002026 (The Journal of Cell Biology, 2010)
